Results on eight molecules are retold here after PMC3901395 (2013).

Read-outs that look alike come from different tables or passages of the source.

Assay in all cases: ITC
The target in experiment [1] is T1, linear di-SUMO2 (2×SUMO2-ΔN11) (UniProt P61956 12-95; P61956 12-95).
Experiment [2] deals with T2, mono-SUMO2 (UniProt P61956 12-93).
In a further experiment the target is linear tri-SUMO (UniProt P61956 12-95; P61956 12-95; P61956 12-95).
In experiment [3] the target is T1, linear di-SUMO2 (2×SUMO2-ΔN11). This is another data set of the same source.
In experiment [4] the target is T3, linear tetra-SUMO2 (4×SUMO2-ΔN11) (UniProt P61956 12-95; P61956 12-95; P61956 12-95; P61956 12-95).
Another experiment deals with mono-SUMO1 (UniProt P63165 16-97).
The target of experiment [5] is T2, mono-SUMO2. This is another data set of the same source.
For experiment [6], the target named is T3, linear tetra-SUMO2 (4×SUMO2-ΔN11). The source holds these as a separate data set.

The Kd is the equilibrium constant for the complex coming apart. Low readings indicate a tighter complex, high ones a looser complex.

T1 sequence (P61956 other isoform, or with tags, fused parts or gaps mutant): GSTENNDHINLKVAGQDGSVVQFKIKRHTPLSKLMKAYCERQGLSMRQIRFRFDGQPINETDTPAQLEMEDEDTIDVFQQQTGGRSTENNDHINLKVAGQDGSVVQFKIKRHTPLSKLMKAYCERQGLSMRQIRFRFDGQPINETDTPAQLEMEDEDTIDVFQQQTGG
T2 sequence (P61956 12-93): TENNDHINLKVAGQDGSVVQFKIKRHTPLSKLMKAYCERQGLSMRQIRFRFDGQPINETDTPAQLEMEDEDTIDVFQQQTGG
T3 sequence (P61956 other isoform, or with tags, fused parts or gaps mutant): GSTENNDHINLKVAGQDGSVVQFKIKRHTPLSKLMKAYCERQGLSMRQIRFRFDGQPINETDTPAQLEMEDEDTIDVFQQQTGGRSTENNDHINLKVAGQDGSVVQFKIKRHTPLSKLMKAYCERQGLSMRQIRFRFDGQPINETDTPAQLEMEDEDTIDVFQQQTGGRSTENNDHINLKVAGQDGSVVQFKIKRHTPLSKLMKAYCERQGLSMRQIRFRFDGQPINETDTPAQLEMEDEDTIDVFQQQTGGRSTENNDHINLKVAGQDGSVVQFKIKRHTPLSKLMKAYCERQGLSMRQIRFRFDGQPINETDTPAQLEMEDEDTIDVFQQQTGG
linear tri-SUMO, sequence (P61956 other isoform, or with tags, fused parts or gaps): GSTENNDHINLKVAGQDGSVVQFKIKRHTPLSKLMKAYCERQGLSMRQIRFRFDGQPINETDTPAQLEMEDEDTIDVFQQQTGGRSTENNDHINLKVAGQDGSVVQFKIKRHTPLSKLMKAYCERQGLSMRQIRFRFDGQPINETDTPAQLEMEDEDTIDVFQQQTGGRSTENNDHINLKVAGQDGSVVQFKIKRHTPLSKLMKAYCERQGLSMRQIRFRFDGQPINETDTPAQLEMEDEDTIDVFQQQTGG
mono-SUMO1, sequence (P63165 16-97): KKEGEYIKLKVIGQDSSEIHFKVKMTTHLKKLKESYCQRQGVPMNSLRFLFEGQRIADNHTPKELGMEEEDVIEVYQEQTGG

B1: RNF4-SIM1/2 peptide (peptide)
chain: EAEPIELVETAGDEIVDLTCESL
modifications: exact peptide ends are only in Figure 2A; limits taken as SIM1 and SIM2 (IELV, VDLT) plus short flanks; end groups unknown
B1: the Kd was 44 µM in experiment [1] and 121 µM with mono-SUMO2 [2].

B2: full-length RNF4 (natural protein)
chain: MSTRKRRGGAINSRQAQKRTREATSTPEISLEAEPIELVETAGDEIVDLTCESLEPVVVDLTHNDSVVIVDERRRPRRNARRLPQDHADSCVVSSDDEELSRDRDVYVTTHTPRNARDEGATGLRPSGTVSCPICMDGYSEIVQNGRLIVSTECGHVFCSQCLRDSLKNANTCPTCRKKINHKRYHPIYI
As for B2, the Kd with linear tri-SUMO turned out to be 1.5 µM; in experiment [3], 3.5 µM; in experiment [4], 0.8 µM.

B3: RNF4-SIM domain SIM4 mutant (domain or fragment)
chain: MSTRKRRGGAINSRQAQKRTREATSTPEISLEAEPIELVETAGDEIVDLTCESLEPVVVDLTHNDSAAAADERRRPRRNARRLPQDHADSCVVSSDDEELSRDRDVYVTTHTPRNARDEGATGLR
Turning to B3, in experiment [1], binding was characterised by a dissociation constant (Kd) of 16 µM.

B4: RNF4-SIM domain SIM1/4 double mutant (domain or fragment)
chain: MSTRKRRGGAINSRQAQKRTREATSTPEISLEAEPAAAAETAGDEIVDLTCESLEPVVVDLTHNDSAAAADERRRPRRNARRLPQDHADSCVVSSDDEELSRDRDVYVTTHTPRNARDEGATGLR
In turn, B4 gave a dissociation constant (Kd) in experiment [1] of 14 µM.

B5: RNF4 1–125 (RNF4-SIM domain, wt) (domain or fragment)
chain: MSTRKRRGGAINSRQAQKRTREATSTPEISLEAEPIELVETAGDEIVDLTCESLEPVVVDLTHNDSVVIVDERRRPRRNARRLPQDHADSCVVSSDDEELSRDRDVYVTTHTPRNARDEGATGLR
Consider B5, for which the results for the Kd in the experiment with mono-SUMO1 and in the experiment with mono-SUMO2 [5] were 123 µM and 145 µM, respectively.

B6: RNF4-SIM domain SIM1/2 double mutant (domain or fragment)
chain: MSTRKRRGGAINSRQAQKRTREATSTPEISLEAEPAAAAETAGDEIAAAACESLEPVVVDLTHNDSVVIVDERRRPRRNARRLPQDHADSCVVSSDDEELSRDRDVYVTTHTPRNARDEGATGLR
The molecule B6 came in with an equilibrium dissociation constant (Kd) in experiment [6] of 1.6 µM.

B7: RNF4-SIM3/4 peptide (peptide)
chain: LEPVVVDLTHNDSVVIVDERR
modifications: exact peptide ends are only in Figure 2A; limits taken as SIM3 and SIM4 (VDLT, VVIV) plus short flanks; end groups unknown
For B7, the Kd in experiment [1] turned out to be 72 µM; with mono-SUMO2 [2], 61 µM.

B8: RNF4-SIM2/3 peptide (peptide)
chain: GDEIVDLTCESLEPVVVDLTHND
modifications: exact peptide ends are only in Figure 2A; limits taken as SIM2 and SIM3 (VDLT, VDLT) plus short flanks; end groups unknown
As to B8, the Kd in the experiment with mono-SUMO2 [2] amounted to 106 µM.
